In patent US9987329B2, “Methods for treating peripheral nerve damage” (Cornell University, priority 2014, dated 2018):

Columns and labels:
[1] = tested on: trigeminal ganglion (TG) neuronal cells; assay: Trigeminal ganglion neuronal growth assay; assay type: cell-based, mouse; details: VEGF-B on three consecutive days, culture day 6 (FIG. 11)
[2] = tested on: trigeminal ganglion (TG) neuronal cells; assay: Trigeminal ganglion neuronal growth assay; assay type: cell-based, mouse
Protocol: Trigeminal ganglion (TG) neuronal cells were obtained and cultured as described previously. Pan, Z., Fukuoka et al., FASEB J. 27, 2756-2767 (2013). To evaluate the effect of VEGF-B on neuronal growth, TG neuronal cells were treated with 10-100 ng/ml recombinant mouse VEGF-B^186 (R&D 767-VE-010). The VEGF-B treatments were replenished every other day. Neurite formation and growth was followed up to 3 days. […] VEGF receptors were inhibited by using neutralizing antibodies against VEGFR1 (R&D AF471), VEGFR2 (R&D MAB4431) and Neuropilin 1 (NRP1) (R&D MAB566). TG cells were incubated in a dose dependent manner with anti-VEGFR1, anti-VEGFR2 or anti-NRP1 for 1 hour prior to the addition of 50 ng/ml VEGF-B. The tyrosine kinase domains of VEGFR2 were inhibited with specific inhibitors by incubating TG neuronal cells with 10 μM SU 1498 (Sigma T4192) or 5 nM Ki 8751 (Sigma K1265) for 1 hr before adding 50 ng/ml VEGF-B. All neurite growth was imaged with an AxioObserver Z1 fluorescence microscope in the YFP channel attached to an AxioCam HRm digital camera (Zeiss) operated by AxioVision 4.0 software. Images were analyzed using Neurolucida 9 (MBF Bioscience) a quantitative nerve tracing software.

[3] = tested on: corneal nerves of Thy-1-YFP mice; assay: Corneal nerve regeneration with combinations of VEGF-A and VEGF-B; assay type: in vivo, mouse; details: ligand administered separately, two weeks post-injury (FIG. 14)
Protocol: Thy-1-YFP mice were subjected to cornea epithelium debridement to ablate the superficial nerve endings that innervate the cornea Immediately after injury, the mice were treated with different combinations of VEGF-A and VEGF-B. As shown, combinations of VEGF ligands induce greater nerve regeneration in vivo.
The observed effects were also recapitulated in vivo. Thy-1-YFP neurofluorescent mice were used to induce a corneal epithelium injury that results in ablation of the superficial nerve endings of the cornea. The mice were then treated with different combinations of VEGF-A and VEGF-B, and nerve regeneration was analyzed after two weeks post-injury.

[4] = 50 ng/ml each, three days in culture (FIG. 2B)
[5] = 50 ng/ml, three days in culture (FIG. 2B)

B1: recombinant mouse VEGF-B^186 (protein, listed as Homo sapiens)
chain: MSPLLRRLLLAALLQLAPAQAPVSQPDAPGHQRKVVSWIDVYTRATCQPREVVVPLTVELMGTVAKQLVPSCVTVQRCGGCCPDDGLECVPTGQHQVRMQILMIRYPSSQLGEMSLEEHSQCECRPKKKDSAVKPDRAATPHHRPQPRSVPGWDSAPGAPSPADITHPTPAPGPSAHAAPSTTSALTPGPAAAAADAAASSVAKGGA
notes: vascular endothelial growth factor B; recombinant mouse VEGF-B186 (R&D 767-VE-010)
dendrite length and branching [1]: longer dendrites and more branches | length of neurites compared with untreated controls ([2]; 50 ng/ml VEGF-B, 3 days in culture (FIG. 1)): almost four folds greater | neurite elongation compared with VEGF-A treatment [2, 4]: more than 2 folds | number of branching nodes compared with VEGF-A treated neurons [2, 4]: more than 4 folds | pattern of neurite growth (elongation and branching) ([2]; 50 ng/ml, three days in culture (FIG. 2A)): extensive elongation and branching of the neurites | neurite elongation compared with untreated control [2, 5]: five folds higher | number of branching nodes compared with untreated control [2, 5]: seven fold higher | dose dependence of neurite growth induction ([2]; 10-100 ng/ml VEGF-B (FIG. 7)): dose-dependent | most potent dose for inducing neurite elongation and branching ([2]; increasing concentrations of VEGF-B, 3 days in culture (FIG. 7)): 50 ng/mL | nerve regeneration [3]: induced greater nerve regeneration
